In patent publication US20250136678A1 (BIOSION, published 2025) one finds EC50 and IC50 data, which are given here for 19 molecules.

The chains are these.
B1: mouse antibody E1B1B8C7 (antibody, V domains shown)
VH: QVQLQQPGAELVRPGTSVKLSCKASGYSFTNYWVNWVKQRPGQGLEWIGMVHPSGSETRLNQQFKDKATLTVDKSSNTAYMQLNRPTSEDSAVYYCARVWSGNAFDYWGQGTTLIVSS
VL: DIVMTQSPSSLTVTAGEKVTLNCLSSQSLLNSGNQRNYLTWYQQKPGQPPKLLIYWASTRDSGVPDRFTGGGSGVDFTLTIYRVQAEDLAFYYCQNGFSFPFTFGSGTKLEMK
notes: Mouse hybridoma monoclonal antibody; also called mouse E1B1B8C7
B2: mouse antibody E1H4C3E5 (antibody, V domains shown)
VH: QVQLQQPGAELVRPGTSVKLSCKASGYSFTNYWMNWVKQRPGQGLEWIGMIHPSGSESRLNQKFKDKATLTVDKSSNTAYMQLNRPTSADSAVYYCARVWSGNAFDYWGQGTTLIVSS
VL: DIVMTQSPSSLTVTAGEKVTLSCMSSQSLLNSGNQKNYLTWYQQKPGQPPKLLIFWASTRDSGVPDRFTGGGSGTLFTLTIYRVQAEDLAFYYCQNGFSFPFTFGSGTKLEMR
notes: Mouse hybridoma monoclonal antibody
B3: mouse antibody E1A1F4B5 (antibody, V domains shown)
VH: QVQLQQPGAELVRPGTSVKLSCKASGYSFTNYWVNWVKQRPGQGLEWIGMIHPSGSETRLNQRFRDKTTLTVDRSSNTAYMQLNRPTSEDSAVYYCARVWSGNAFDYWGQGTTLIVSS
VL: DIVMTQSPSSLTVTAGEKVTLNCMSSQSLLNSGNQKNYLTWYQQKPGQPPKLLIYWASTRDSGVPDRFTGGGSGVDFTLTIYRVQAEDLAFYFCQNGFSFPFTFGSGTKLEMK
notes: Mouse hybridoma monoclonal antibody purified on Protein A
B4: huE1B1B8C7-V2 (antibody, human IgG1, kappa, V domains shown)
VH: QVQLVQSGAEVKKPGASVKVSCKASGYSFTNYWVNWVRQAPGQGLEWIGMVHPSGSETRLNQQFKDKATLTVDTSTSTVYMELSSLRSEDTAVYYCARVWSGNAFDYWGQGTLVTVSS
VL: DIVMTQSPDSLAVSLGERATINCLSSQSLLASGNQRNYLTWYQQKPGQPPKLLIYWASTRDSGVPDRFTGSGSGVDFTLTISSVQAEDVAVYYCQNGFSFPFTFGQGTKLEIKR
notes: Humanized, human IgG1/kappa; X positions as numbered in CLM-00003 and CLM-00004
B5: huE1B1B8C7-V1 (antibody, human IgG1, kappa, V domains shown)
VH: QVQLVQSGAEVKKPGASVKVSCKASGYSFTNYWVNWVRQAPGQGLEWIGMVHPSGSETRLNQQFKDKATLTVDKSTSTAYMELSSLRSEDTAVYYCARVWSGNAFDYWGQGTLVTVSS
VL: DIVMTQSPDSLAVSLGERATINCLSSQSLLASGNQRNYLTWYQQKPGQPPKLLIYWASTRDSGVPDRFTGSGSGVDFTLTISSVQAEDVAVYYCQNGFSFPFTFGQGTKLEIKR
notes: as for B4
B6: huE1B1B8C7-V9 (antibody, human IgG1, kappa, V domains shown)
VH: QVQLVQSGAEVKKPGASVKVSCKASGYSFTNYWVNWVRQAPGQGLEWIGMVHPSGSETRLNQQFKDKATLTVDKSTSTAYMELSSLRSEDTAVYYCARVWSGNAFDYWGQGTLVTVSS
VL: DIVMTQSPDSLAVSLGERATINCLSSQSLLASGNQRNYLTWYQQKPGQPPKLLIYWASTRDSGVPDRFSGSGSGVDFTLTISSVQAEDVAVYYCQNGFSFPFTFGQGTKLEIKR
notes: as for B4
B7: huE1B1B8C7-V4 (antibody, human IgG1, kappa, V domains shown)
VH: QVQLVQSGAEVKKPGASVKVSCKASGYSFTNYWVNWVRQAPGQGLEWMGMVHPSGSETRLNQQFKDKATLTVDTSTSTVYMELSSLRSEDTAVYYCARVWSGNAFDYWGQGTLVTVSS
VL: DIVMTQSPDSLAVSLGERATINCLSSQSLLASGNQRNYLTWYQQKPGQPPKLLIYWASTRDSGVPDRFTGSGSGVDFTLTISSVQAEDVAVYYCQNGFSFPFTFGQGTKLEIKR
notes: as for B4
B8: huE1B1B8C7-V6 (antibody, human IgG1, kappa, V domains shown)
VH: QVQLVQSGAEVKKPGASVKVSCKASGYSFTNYWVNWVRQAPGQGLEWIGMVHPSGSETRLNQQFKDKVTLTVDTSTSTVYMELSSLRSEDTAVYYCARVWSGNAFDYWGQGTLVTVSS
VL: DIVMTQSPDSLAVSLGERATINCLSSQSLLASGNQRNYLTWYQQKPGQPPKLLIYWASTRDSGVPDRFTGSGSGVDFTLTISSVQAEDVAVYYCQNGFSFPFTFGQGTKLEIKR
notes: as for B4
B9: huE1B1B8C7-V5 (antibody, human IgG1, kappa, V domains shown)
VH: QVQLVQSGAEVKKPGASVKVSCKASGYSFTNYWVNWVRQAPGQGLEWIGMVHPSGSETRLNQQFKDRATLTVDTSTSTVYMELSSLRSEDTAVYYCARVWSGNAFDYWGQGTLVTVSS
VL: DIVMTQSPDSLAVSLGERATINCLSSQSLLASGNQRNYLTWYQQKPGQPPKLLIYWASTRDSGVPDRFTGSGSGVDFTLTISSVQAEDVAVYYCQNGFSFPFTFGQGTKLEIKR
notes: as for B4
B10: huE1B1B8C7-V7 (antibody, human IgG1, kappa, V domains shown)
VH: QVQLVQSGAEVKKPGASVKVSCKASGYSFTNYWVNWVRQAPGQGLEWIGMVHPSGSETRLNQQFKDKATMTVDTSTSTVYMELSSLRSEDTAVYYCARVWSGNAFDYWGQGTLVTVSS
VL: DIVMTQSPDSLAVSLGERATINCLSSQSLLASGNQRNYLTWYQQKPGQPPKLLIYWASTRDSGVPDRFTGSGSGVDFTLTISSVQAEDVAVYYCQNGFSFPFTFGQGTKLEIKR
notes: as for B4
B11: huE1B1B8C7-V3 (antibody, human IgG1, kappa, V domains shown)
VH: QVQLVQSGAEVKKPGASVKVSCKASGYTFTNYWVNWVRQAPGQGLEWIGMVHPSGSETRLNQQFKDKATLTVDTSTSTVYMELSSLRSEDTAVYYCARVWSGNAFDYWGQGTLVTVSS
VL: DIVMTQSPDSLAVSLGERATINCLSSQSLLASGNQRNYLTWYQQKPGQPPKLLIYWASTRDSGVPDRFTGSGSGVDFTLTISSVQAEDVAVYYCQNGFSFPFTFGQGTKLEIKR
notes: as for B4
B12: huE1B1B8C7-V16 (antibody, human IgG1, kappa, V domains shown)
VH: QVQLVQSGAEVKKPGASVKVSCKASGYSFTNYWVNWVRQAPGQGLEWIGMVHPSGSETRLNQQFKDKATLTVDTSTSTVYMELSSLRSEDTAVYYCARVWSGNAFDYWGQGTLVTVSS
VL: DIVMTQSPDSLAVSLGERATINCLSSQSLLASGNQRNYLTWYQQKPGQPPKLLIYWASTRDSGVPDRFTGSGSGVDFTLTISSLQAEDVAVYYCQNGFSFPFTFGQGTKLEIKR
notes: as for B4
B13: huE1B1B8C7-V11 (antibody, human IgG1, kappa, V domains shown)
VH: QVQLVQSGAEVKKPGASVKVSCKASGYTFTNYWVNWVRQAPGQGLEWIGMVHPSGSETRLNQQFKDKATLTVDTSTSTVYMELSSLRSEDTAVYYCARVWSGNAFDYWGQGTLVTVSS
VL: DIVMTQSPDSLAVSLGERATINCLSSQSLLASGNQRNYLTWYQQKPGQPPKLLIYWASTRDSGVPDRFSGSGSGVDFTLTISSVQAEDVAVYYCQNGFSFPFTFGQGTKLEIKR
notes: as for B4
B14: huE1B1B8C7-V17 (antibody, human IgG1, kappa, V domains shown)
VH: QVQLVQSGAEVKKPGASVKVSCKASGYTFTNYWVNWVRQAPGQGLEWIGMVHPSGSETRLNQQFKDKATLTVDTSTSTVYMELSSLRSEDTAVYYCARVWSGNAFDYWGQGTLVTVSS
VL: DIVMTQSPDSLAVSLGERATINCLSSQSLLASGNQRNYLTWYQQKPGQPPKLLIYWASTRDSGVPDRFTGSGSGVDFTLTISSLQAEDVAVYYCQNGFSFPFTFGQGTKLEIKR
notes: as for B4
B15: huE1B1B8C7-V12 (antibody, human IgG1, kappa, V domains shown)
VH: QVQLVQSGAEVKKPGASVKVSCKASGYSFTNYWVNWVRQAPGQGLEWIGMVHPSGSETRLNQQFKDKATLTVDKSTSTAYMELSSLRSEDTAVYYCARVWSGNAFDYWGQGTLVTVSS
VL: DIVMTQSPDSLAVSLGERATINCLSSQSLLASGNQRNYLTWYQQKPGQPPKLLIYWASTRDSGVPDRFTGSGSGTDFTLTISSVQAEDVAVYYCQNGFSFPFTFGQGTKLEIKR
B16: huE1B1B8C7-V15 (antibody, human IgG1, kappa, V domains shown)
VH: QVQLVQSGAEVKKPGASVKVSCKASGYSFTNYWVNWVRQAPGQGLEWIGMVHPSGSETRLNQQFKDKATLTVDKSTSTAYMELSSLRSEDTAVYYCARVWSGNAFDYWGQGTLVTVSS
VL: DIVMTQSPDSLAVSLGERATINCLSSQSLLASGNQRNYLTWYQQKPGQPPKLLIYWASTRDSGVPDRFTGSGSGVDFTLTISSLQAEDVAVYYCQNGFSFPFTFGQGTKLEIKR
notes: as for B4
B17: huE1B1B8C7-V13 (antibody, human IgG1, kappa, V domains shown)
VH: QVQLVQSGAEVKKPGASVKVSCKASGYSFTNYWVNWVRQAPGQGLEWIGMVHPSGSETRLNQQFKDKATLTVDTSTSTVYMELSSLRSEDTAVYYCARVWSGNAFDYWGQGTLVTVSS
VL: DIVMTQSPDSLAVSLGERATINCLSSQSLLASGNQRNYLTWYQQKPGQPPKLLIYWASTRDSGVPDRFTGSGSGTDFTLTISSVQAEDVAVYYCQNGFSFPFTFGQGTKLEIKR
notes: as for B4
B18: huE1B1B8C7-V10 (antibody, human IgG1, kappa, V domains shown)
VH: QVQLVQSGAEVKKPGASVKVSCKASGYSFTNYWVNWVRQAPGQGLEWIGMVHPSGSETRLNQQFKDKATLTVDTSTSTVYMELSSLRSEDTAVYYCARVWSGNAFDYWGQGTLVTVSS
VL: DIVMTQSPDSLAVSLGERATINCLSSQSLLASGNQRNYLTWYQQKPGQPPKLLIYWASTRDSGVPDRFSGSGSGVDFTLTISSVQAEDVAVYYCQNGFSFPFTFGQGTKLEIKR
notes: as for B4
B19: huE1B1B8C7-V14 (antibody, human IgG1, kappa, V domains shown)
VH: QVQLVQSGAEVKKPGASVKVSCKASGYTFTNYWVNWVRQAPGQGLEWIGMVHPSGSETRLNQQFKDKATLTVDTSTSTVYMELSSLRSEDTAVYYCARVWSGNAFDYWGQGTLVTVSS
VL: DIVMTQSPDSLAVSLGERATINCLSSQSLLASGNQRNYLTWYQQKPGQPPKLLIYWASTRDSGVPDRFTGSGSGTDFTLTISSVQAEDVAVYYCQNGFSFPFTFGQGTKLEIKR
notes: as for B4

For one assay, the target named is T1, human CLDN18.2 (NP_001002026.1) (human, UniProt P56856-2 1-261).
T1 construct: whole, on cells; KATO III cells also served as target cells in the ADCC assay; also called Claudin18.2; Claudin-18 splice variant 2
Nature of the assay: cell-based binding FACS on BAF3-CLDN18.2 cells, MFI against Con of mAb, nM is the unit of the x axis; the three mouse curves overlap and level off near MFI 2300-2400.
Description: (§1) The BAF3-CLDN18.2, BAF3-CLDN18.1 and BAF3 cells were harvested, washed twice and re-suspended in phosphate buffered saline (PBS) containing 2% v/v Fetal Bovine Serum (FACS buffer), BAF3 cells were used here as blank control. The cells, 1×10⁵ per well, were incubated in 96 well-plates with 100 μl serially diluted antibodies or controls (starting from 10 μg/mL, 5-fold serial dilution) in FACS buffer for 50 minutes on ice. […] Following an incubation of 50 minutes at 4° C. in dark, cells were washed three times and re-suspended in FACS buffer. Fluorescence was measured using a Becton Dickinson FACS Canto II-HTS equipment, and the MFI (mean fluorescence intensity) was plotted against antibody concentration. Data was analyzed using Graphpad Prism and EC₅₀ values were reported.
In turn, B1 registered an EC50 of 2.24 nM. That is a single-digit nanomolar value.
On the same count and under the same terms, the result for B2 reads 1.49 nM; that for B3, 1.76 nM.

In the next assay the target is T1, human CLDN18.2 (NP_001002026.1). Nature of the assay: cell-based binding FACS on BAF3-CLDN18.2 cells, MFI against Con of mAb, nM is the unit of the x axis; curve lies in a bundle of overlapping curves reaching MFI about 5000-6000.
Description: as §1
As for B4, the EC50 turned out to be 5.18 nM.
The same measure, in the same setting: with B5 the figure was 3.32 nM; with B6, 2.31 nM; with B7, 3.63 nM.
Consider B8, for which the response was half-maximal at 3.1 nM (EC50).
Still for that read-out and setting: with B9 the figure was 4.33 nM.
The same measure, in the same setting: with B10 the figure was 3.89 nM; with B11, 3.7 nM.

Another assay has the same target. In words: cell-based binding FACS on BAF3-CLDN18.2 cells, MFI against Con of mAb, nM is the unit of the x axis; curve lies in a bundle of close curves reaching MFI about 5300-5900.
Description: as §1
With B12, a half-maximal effect (EC50) was put at 3.29 nM.
B13 showed an EC50 of 5.39 nM.
Still for that read-out and setting: with B14 the figure was 4.87 nM.
For the molecule B15, the EC50 came to 3.06 nM.
Still for that read-out and setting: the result for B16 reads 2.76 nM; that for B17, 3.46 nM; that for B18, 5.74 nM.
The same measure, in the same setting: the result for B19 reads 4.03 nM.

For a further assay the target is unchanged. Nature of the assay: cell-based blocking FACS on BAF3-CLDN18.2 cells; competitor: biotin labeled Zolbetuximab, SA-PE detection, nM is the unit of the x axis; signal falls from about 800-870 to about 110 at the last point.
Description: The anti-CLDN18.2 antibodies of the disclosure, and the controls were diluted with FACS buffer starting from 10 μg/mL with 5-fold serial dilution. BAF3-CLDN18.2 cells were harvested from cell culture flasks at the log phase, washed twice and re-suspended in PBS containing 2% v/v Fetal Bovine Serum (FACS buffer). […] Then the cells were washed twice with FACS buffer, added with 100 μl/well SA-PE (1:200 dilution in FACS buffer, Cat #:016-110-084, Jackson Immunoresearch), and incubated for 40 minutes at 4° C. in dark. Cells were washed twice and re-suspended in FACS buffer. Fluorescence was measured using a Becton Dickinson FACS Canto II-HTS equipment. Data was analyzed using Graphpad Prism and IC₅₀ values were reported.
B1 yielded an IC50 of 6.86 nM.
On the same count and under the same terms, with B2 the figure was 4.38 nM; with B3, 5.29 nM.

For orientation: EC50 means the concentration that produces a half-maximal response. What is called IC50 is the point on the concentration scale where inhibition reaches its midpoint. Higher therefore signals lower potency.
